Earlier results, collected in patent US6126956A, “Subcutaneous implant” (priority 1998, dated 2000).
Like-named read-outs stand apart in the source and are kept apart here.

Details: coated EVA with hole in one face, or coated hemisphere with exposed cavity

Substance | release kinetics from prior polymer devices | release kinetics from prior polymer devices (listed as insulin)
Insulin | near constant release rates | zero order kinetics
albumin | zero order kinetics | –
